Source: the supplement of paper PMC10126150
± gives the standard deviation of the averaged measurements.

System: ATP
Assay: switch fluorescence ratio, 500 uM ATP over buffer (Cy3 cluster intensity, sum of 5 cycles each) (fold (ratio)); higher = stronger signal-on switching upon ATP binding; sequences stand for … in TCGTCGGCAGCGTCAGATGTGTATAAGAGACAGTTTTTTTTTTTTTTTTTTTTTTTTT…TC
Settings: aptamer strand: ATP DNA aptamer (quencher-CACCTGGGGGAGTATTGCGGAGGAAGG + anchor), 100 nM annealed; ATP concentration: 500 uM
How it was run: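 Clusters with intensities outside 100-1000 RFU were excluded. The remaining Cy3-labelled switching-strand clusters on a modified Illumina MiSeq flow-cell had been annealed to 100 nM quencher-labelled ATP aptamer and imaged in selection buffer, then after 15 min with 500 uM ATP at 22 °C, for five cycles separated by NaOH stripping and re-annealing. The fluorescence ratio, averaged per switch-domain sequence, is each cluster's summed target-cycle Cy3 intensity over its summed buffer-cycle Cy3 intensity.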
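Further: ATP exposure 15 min at 22 °C before imaging.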

Sequence | switch fluorescence ratio
TGGCTTTGGT | 0.9862 ± 0.0046
TGGCTTTTAC | 1.09 ± 0.056
TGGGAAAAGA | 0.983 ± 0.017
TGGGAAACGT | 1.09 ± 0.027
TGGGAAAGAA | 1.04 ± 0.068
TGGGAAAGGA | 1.01 ± 0.051
TGGGAAAGGT | 0.994 ± 0.025
TGGGAAATCA | 0.993 ± 0.048
TGGGAAATGT | 1.1 ± 0.23
TGGGAAATTA | 0.999 ± 0.024
TGGGAAGGAT | 1.006 ± 0.0016
TGGGAAGGGC | 1.02 ± 0.03
TGGGACACTG | 0.972 ± 0.035
TGGGACCCCC | 1.34 ± 0.47
TGGGACGTGG | 0.9812 ± 0.0086
TGGGAGAAAA | 1.0069 ± 0.00087
TGGGAGAAAT | 2.39 ± 2.4
TGGGAGACGG | 1.2 ± 0.38
TGGGAGATGT | 0.993 ± 0.015
TGGGAGGACG | 0.97 ± 0.038
TGGGAGGCGT | 0.992 ± 0.02
TGGGAGGGAG | 0.987 ± 0.028

Sequence | switch fluorescence ratio
TGGGAGGGTG | 1.02 ± 0.067
TGGGAGTTCC | 1.04 ± 0.036
TGGGATAAGT | 1.01 ± 0.018
TGGGATATAG | 0.994 ± 0.022
TGGGATATTA | 0.9995 ± 0.007
TGGGATCAAG | 1 ± 0.032
TGGGATGGGG | 1.01 ± 0.037
TGGGATTCGG | 1.03 ± 0.092
TGGGATTTAG | 1 ± 0.044
TGGGATTTTC | 1.03 ± 0.067
TGGGCAATTT | 1.09 ± 0.036
TGGGCAGAGG | 1.01 ± 0.024
TGGGCAGGAC | 1.41 ± 0.49
TGGGCAGGGA | 0.9817 ± 0.0024
TGGGCATATA | 0.996 ± 0.012
TGGGCCAAGC | 0.995 ± 0.025
TGGGCCCGGC | 1.02 ± 0.053
TGGGCGAATC | 0.998 ± 0.014
TGGGCGGGA | 1 ± 0.03
TGGGCTATTT | 0.964 ± 0.017
TGGGCTCTGT | 0.978 ± 0.044
TGGGCTTCGG | 0.9689 ± 0.0093

Sequence | switch fluorescence ratio
TGGGCTTGTT | 0.999 ± 0.036
TGGGGAACGG | 0.981 ± 0.031
TGGGGAAGGT | 0.994 ± 0.022
TGGGGAATCT | 1.02 ± 0.016
TGGGGAGAGC | 0.992 ± 0.019
TGGGGAGGTT | 0.97 ± 0.044
TGGGGATTGG | 1.17 ± 0.49
TGGGGATTTT | 0.998 ± 0.063
TGGGGCGAAG | 1.01 ± 0.026
TGGGGCGGGT | 1.02 ± 0.017
TGGGGCGTCT | 1.01 ± 0.043
TGGGGCTGCC | 0.969 ± 0.039
TGGGGCTTCA | 1.01 ± 0.028
TGGGGGAAA | 0.988 ± 0.04
TGGGGGAAAC | 1.01 ± 0.032
TGGGGGAACC | 1.004 ± 0.0099
TGGGGGACGT | 0.999 ± 0.045
TGGGGGAGCG | 0.99 ± 0.019
TGGGGGAGGT | 1 ± 0.027
TGGGGGCCAA | 0.965 ± 0.012
TGGGGGCCCT | 0.996 ± 0.026
TGGGGGCGCC | 0.982 ± 0.041

Sequence | switch fluorescence ratio
TGGGGGCGGT | 0.996 ± 0.028
TGGGGGCGTT | 1 ± 0.034
TGGGGGGACA | 0.985 ± 0.015
TGGGGGGCCG | 1.06 ± 0.19
TGGGGGGCTT | 0.989 ± 0.023
TGGGGGTGGA | 1.01 ± 0.046
TGGGGGTGTT | 1 ± 0.032
TGGGGGTTGC | 0.982 ± 0.042
TGGGGGTTTC | 0.975 ± 0.053
TGGGGTACCT | 1.08 ± 0.077
TGGGGTACTA | 0.975 ± 0.069
TGGGGTATTA | 0.998 ± 0.018
TGGGGTCGGG | 1 ± 0.022
TGGGGTCGTC | 1.038 ± 0.0087
TGGGGTCGTG | 0.964 ± 0.022
TGGGGTGCAC | 0.957 ± 0.024
TGGGGTTATC | 0.9931 ± 0.0079
TGGGGTTATG | 0.984 ± 0.019
TGGGGTTG | 0.993 ± 0.018
